The values that follow come from paper doi:10.1101/2024.02.23.581826 (bioRxiv, 2024).

By Kd is commonly meant a measure of binding affinity in units of concentration. The low end stands for a tighter complex, the high end for a looser complex.

“And” between values parts separate entries of the source, which are not always exact repeats. Equal entries are not always repeated. Where two headings read alike, the source gives them in different places.

What all share (experiment): SPR
Test [1] concerns the target T1, isolated CNBH domain of mouse EAG1 (mEAG1) channels, residues 552-708 (mouse, UniProt Q60603 552-708).
T1 sequence (looked up): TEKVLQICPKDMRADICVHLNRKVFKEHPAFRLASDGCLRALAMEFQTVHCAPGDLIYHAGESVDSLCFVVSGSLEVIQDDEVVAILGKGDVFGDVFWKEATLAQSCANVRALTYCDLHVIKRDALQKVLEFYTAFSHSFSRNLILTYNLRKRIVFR

For test [2], the target named is T1, isolated CNBH domain of mouse EAG1 …. The source holds these as a separate data set.
Test [3] shares this target. This is another data set of the same source.
For test [4] the target is unchanged. The source holds these as a separate data set.

B1: isolated PAS domain of mouse EAG1 (mEAG1) channels, residues 7-136 (domain or fragment, UniProt Q60603 7-136, looked up)
chain: RRGLVAPQNTFLENIVRRSNDTNFVLGNAQIVDWPIVYSNDGFCKLSGYHRAEVMQKSSACSFMYGELTDKDTVEKVRQTFENYEMNSFEILMYKKNRTPVWFFVKIAPIRNEQDKVVLFLCTFSDITAF
On to B1, for which the Kd in test [1] is 1.8 µM; in test [2], 1.6 µM; in test [3] it was 0.9 µM and 0.5 µM; in test [4] it was 2.5 µM and 2.9 µM.
